Laboratory results as given in paper PMC11617674 (2024).

Target: T1, GlnK (Escherichia coli (strain …, UniProt P0AC55,P0AC55,P0AC55))
T1 chain 1: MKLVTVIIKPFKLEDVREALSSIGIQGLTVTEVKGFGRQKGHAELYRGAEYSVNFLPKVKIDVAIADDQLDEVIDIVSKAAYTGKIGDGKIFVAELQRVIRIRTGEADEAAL
T1 chain 2: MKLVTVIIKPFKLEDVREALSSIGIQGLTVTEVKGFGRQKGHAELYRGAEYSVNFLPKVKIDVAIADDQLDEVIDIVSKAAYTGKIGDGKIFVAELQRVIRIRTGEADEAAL
T1 chain 3: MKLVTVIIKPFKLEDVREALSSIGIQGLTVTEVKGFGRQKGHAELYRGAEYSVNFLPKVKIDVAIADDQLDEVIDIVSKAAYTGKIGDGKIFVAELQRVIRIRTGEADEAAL
Assay: BLI (His-PII trimer on sensor), ADP

B1: UmpH (protein)
chain: MTIKNVICDIDGVLMHDNVAVPGAAEFLHGIMDKGLPLVLLTNYPSQTGQDLANRFATAGVDVPDSVFYTSAMATADFLRRQEGKKAYVVGEGALIHELYKAGFTITDVNPDFVIVGETRSYNWDMMHKAAYFVANGARFIATNPDTHGRGFYPACGALCAGIEKISGRKPFYVGKPSPWIIRAALNKMQAHSEETVIVGDNLRTDILAGFQAGLETILVLSGVSSLDDIDSMPFRPSWIYPSVAEIDVI
In the case of B1, the Kd is reported as 7.8 nM.
